{
  "source": "patent US20180333482A1",
  "about": "(LOYOLA UNIVERSITY OF CHICAGO, published 2018)",
  "biological_target": "the molecule itself",
  "test": "dynamic light scattering, self-association",
  "data": [
    {"protein": "recombinant wild-type MHV nsp15 protein, SUMO-fusion protein purified from E. coli (enzyme, domain: nsp15; also called WT nsp15; WT MHV Nsp15; not shown: His-SUMO tag from the pET-His-SUMO vector) SLENVVYNLVNAGHFDGRAGELPCAVIGEKVIAKIQNEDVVVFKNNTPFPTNVAVELFAKRSIRPHPELKLFRNLNIDVCWSHVLWDYAKDSVFCSSTYKVCKYTDLQCIESLNVLFDGRDNGALEAFKKCRNGVYINTTKIKSLSMIKGPQRADLNGVVVEKVGDSDVEFWFAVRKDGDDVIFSRTGSLEPSHYRSPQGNPGGNRVGDLSGNEALARGTIFTQSRLLSSFTPRSEMEKDFMDLDDDVFIAKYSLQDYAFEHVVYGSFNQKIIGGLHLLIGLARRQQKSNLVIQEFVTYDSSIHSYFITDENSGSSKSVCTVIDLLLDDFVDIVKSLNLKCVSKVVNVNVDFKDFQFMLWCNEEKVMTFYPRLQ", "values": [
      {"measurement": "binding result", "value": "binds"}
    ]}
  ]
}
